One block for each molecule: values may come before it.
Assays:
[1] = biological target: Cathepsin B from bovine spleen (Bos taurus, UniProt P07688); test: Assay for Cathepsin B activity / inhibition (Z-Lys-pNP substrate, absorbance 330 nm); format: biochemical
[2] = Anti-inflammatory activity of MGO-modified proteins (results not shown)
Source text: As used herein, “anti-inflammatory capacity” is defined as the capacity to clinically reduce inflammation or the symptoms of inflammation in cellular tissue. Anti-inflammatory capacity may be determined using the phagocytosis inhibition assay (PIA) described in PCT/NZ PCT/NZ/2011/000271 or the DCFDA assay also described in PCT/NZ/2011/000271 or the anti-inflammatory capacity may also be determined by the inhibition of Cathepsin B as described in detail below.

[3] = Table 3, peptides from C-terminus of MRJP3, 2 mM MGO-modified peptide
[4] = Table 3, peptides from C-terminus of MRJP3, 2 mM unmodified peptide
[5] = Table 1, peptides from C-terminus of MRJP1, 2 mM MGO-modified peptide
[6] = Table 1, peptides from C-terminus of MRJP1, 2 mM unmodified peptide
[7] = Table 6, MRJP1 derived synthetic peptides, MGO-modified
[8] = Table 6, MRJP1 derived synthetic peptides, unmodified
[9] = Table 9, additional synthetic peptides, MGO-modified
[10] = Table 9, additional synthetic peptides, unmodified
[11] = Table 8, MRJP5 derived synthetic peptides, MGO-modified
[12] = Table 8, MRJP5 derived synthetic peptides, unmodified

Molecule: Ac-MQK-OH (Ac-Met-Gln-Lys-OH) [MRJP1 derived synthetic peptide]
Cathepsin B remaining activity (% of control) [1, 7]: 69.15 ± 4.87
Cathepsin B remaining activity (% of control) [1, 8]: 121.24 ± 3.57

Molecule: H-FTK-OH (H-Phe-Thr-Lys-OH) [MRJP1 derived synthetic peptide]
Cathepsin B remaining activity (% of control) [1, 7]: 76.59 ± 2.24
Cathepsin B remaining activity (% of control) [1, 8]: 147.63 ± 0.70

Molecule: Ac-FDR-OH (Ac-Phe-Asp-Arg-OH) [MRJP1 derived synthetic peptide]
Cathepsin B remaining activity (% of control) [1, 7]: 44.78 ± 1.54
Cathepsin B remaining activity (% of control) [1, 8]: 85.57 ± 3.51

Molecule: H-MQK-OH (H-Met-Gln-Lys-OH) [MRJP1 derived synthetic peptide]
Cathepsin B remaining activity (% of control) [1, 7]: 99.48 ± 2.95
Cathepsin B remaining activity (% of control) [1, 8]: 127.00 ± 0.93

Molecule: H-MTR-OH (H-Met-Thr-Arg-OH) [MRJP1 derived synthetic peptide]
Cathepsin B remaining activity (% of control) [1, 7]: 104.39 ± 2.68
Cathepsin B remaining activity (% of control) [1, 8]: 143.48 ± 2.33

Molecule: H-HNIR-OH [MRJP1 derived synthetic peptide]
Cathepsin B remaining activity (% of control) [1, 7]: 103.38 ± 3.65
Cathepsin B remaining activity (% of control) [1, 8]: 151.51 ± 0.62

Molecule: Ac-FTK-OH (Ac-Phe-Thr-Lys-OH) [MRJP1 derived synthetic peptide]
Cathepsin B remaining activity (% of control) [1, 7]: 105.35 ± 5.73
Cathepsin B remaining activity (% of control) [1, 8]: 148.84 ± 16.13

Molecule: Ac-HNIR-OH [MRJP1 derived synthetic peptide]
Cathepsin B remaining activity (% of control) [1, 7]: 106.82 ± 3.02
Cathepsin B remaining activity (% of control) [1, 8]: 171.58 ± 11.29

Molecule: H-YINR-OH [MRJP1 derived synthetic peptide]
Cathepsin B remaining activity (% of control) [1, 7]: 79.21 ± 2.12
Cathepsin B remaining activity (% of control) [1, 8]: 142.33 ± 3.64

Molecule: H-FDR-OH (H-Phe-Asp-Arg-OH) [MRJP1 derived synthetic peptide]
Cathepsin B remaining activity (% of control) [1, 7]: 71.18 ± 2.22
Cathepsin B remaining activity (% of control) [1, 8]: 174.56 ± 11.96

Molecule: MGO-modified bovine serine albumin: bovine serum albumin reacted with methylglyoxal, comparison protein [reference compound]
Anti-inflammatory activity [2]: no anti-inflammatory activity

Molecule: Ac-SSKS-OH
Cathepsin B remaining activity (% of control) [1, 3]: 107.49 ± 4.29
Cathepsin B remaining activity (% of control) [1, 4]: 118.71 ± 9.09

Molecule: Ac-CDR-OH (Ac-Cys-Asp-Arg-OH) [MRJP1 derived synthetic peptide]
Cathepsin B remaining activity (% of control) [1, 7]: 78.51 ± 2.51
Cathepsin B remaining activity (% of control) [1, 8]: 120.52 ± 8.17

Molecule: Ac-MTR-OH (Ac-Met-Thr-Arg-OH) [MRJP1 derived synthetic peptide]
Cathepsin B remaining activity (% of control) [1, 7]: 118.90 ± 5.62
Cathepsin B remaining activity (% of control) [1, 8]: 126.30 ± 8.12

Molecule: H-CDR-OH (H-Cys-Asp-Arg-OH) [MRJP1 derived synthetic peptide]
Cathepsin B remaining activity (% of control) [1, 7]: 96.01 ± 6.45
Cathepsin B remaining activity (% of control) [1, 8]: 165.10 ± 0.38

Molecule: Ac-YINR-OH [MRJP1 derived synthetic peptide]
Cathepsin B remaining activity (% of control) [1, 7]: 99.05 ± 7.78
Cathepsin B remaining activity (% of control) [1, 8]: 93.14 ± 2.42

B1: MGO-modified MRJP1: major royal jelly protein 1 (apalbumin 1) chemically modified by methylglyoxal (protein, UniProt O18330 20-432, looked up)
Major royal jelly protein 1: NILRGESLNKSLPILHEWKFFDYDFGSDERRQDAILSGEYDYKNNYPSDIDQWHDKIFVTMLRYNGVPSSLNVISKKVGDGGPLLQPYPDWSFAKYDDCSGIVSASKLAIDKCDRLWVLDSGLVNNTQPMCSPKLLTFDLTTSQLLKQVEIPHDVAVNATTGKGRLSSLAVQSLDCNTNSDTMVYIADEKGEGLIVYHNSDDSFHRLTSNTFDYDPKFTKMTIDGESYTAQDGISGMALSPMTNNLYYSPVASTSLYYVNTEQFRTSDYQQNDIHYEGVQNILDTQSSAKVVSKSGVLFFGLVGDSALGCWNEHRTLERHNIRTVAQSDETLQMIASMKIKEALPHVPIFDRYINREYILVLSNKMQKMVNNDFNFDDVNFRIMNANVNELILNTRCENPDNDRTPFKISIHL
modifications: methylglyoxal-modified
notes: major royal jelly protein 1 (apalbumin 1) chemically modified by methylglyoxal
Anti-inflammatory activity [2]: enhanced anti-inflammatory properties

Other lines, results leading:

Cathepsin B remaining activity (% of control) [1, 3]: 67.57 ± 1.73
Cathepsin B remaining activity (% of control) [1, 4]: 146.35 ± 2.91
Molecule: Ac-SKLH-OH [synthetic peptide derived from the C-terminus of MRJP3]

Cathepsin B remaining activity (% of control) [1, 5]: 91.45 ± 0.11
Cathepsin B remaining activity (% of control) [1, 6]: 152.05 ± 13.20
Molecule: Ac-PFKI-OH [synthetic peptide derived from the C-terminus of MRJP1]

Cathepsin B remaining activity (% of control) [1, 9]: 136.90
Cathepsin B remaining activity (% of control) [1, 10]: 159.34 ± 2.34
Molecule: Ac-LLK-NH2 (Ac-Leu-Leu-Lys-NH2) [synthetic peptide derived from MRJP1, 2, 4, amidated C-terminus]

Cathepsin B remaining activity (% of control) [1, 9]: 72.56
Cathepsin B remaining activity (% of control) [1, 10]: 65.39 ± 2.75
Molecule: Ac-LIR-NH2 (Ac-Leu-Ile-Arg-NH2) [synthetic peptide derived from MRJP2, 4 (see Leu408), amidated C-terminus]

Cathepsin B remaining activity (% of control) [1, 9]: 147.60
Cathepsin B remaining activity (% of control) [1, 10]: 141.56 ± 13.90
Molecule: Ac-LLK-OH (Ac-Leu-Leu-Lys-OH) [synthetic peptide derived from MRJP1, 2, 4]

Cathepsin B remaining activity (% of control) [1, 11]: 90.15 ± 1.52
Cathepsin B remaining activity (% of control) [1, 12]: 102.05 ± 10.32
Molecule: Ac-LQK-OH (Ac-Leu-Gln-Lys-OH) [MRJP5 derived synthetic peptide]

Cathepsin B inhibition after MGO modification ([1]; MGO-modified synthetic peptides): particularly potent activity
Cathepsin B remaining activity (% of control) [1, 9]: 0.07
Cathepsin B remaining activity (% of control) [1, 10]: 128.28 ± 2.50
Molecule: Ac-LIR-OH (Ac-Leu-Ile-Arg-OH) [synthetic peptide derived from MRJP2, 4 (see Leu408)]

Cathepsin B remaining activity (% of control) [1, 11]: 95.26 ± 5.54
Cathepsin B remaining activity (% of control) [1, 12]: 102.47 ± 4.27
Molecule: H-LQK-OH (H-Leu-Gln-Lys-OH) [MRJP5 derived synthetic peptide]

Cathepsin B remaining activity (% of control) [1, 9]: 80.03
Cathepsin B remaining activity (% of control) [1, 10]: 92.71 ± 7.78
Molecule: Ac-LVK-NH2 (Ac-Leu-Val-Lys-NH2) [synthetic peptide derived from MRJP3 (see Leu170), amidated C-terminus]

Cathepsin B remaining activity (% of control) [1, 11]: 91.86 ± 3.50
Cathepsin B remaining activity (% of control) [1, 12]: 102.61 ± 5.34
Molecule: H-TNR-OH (H-Thr-Asn-Arg-OH) [MRJP5 derived synthetic peptide]

Cathepsin B remaining activity (% of control) ([1]; Table 2, peptides from C-terminus of MRJP2, 2 mM MGO-modified peptide): 102.36 ± 6.36
Cathepsin B remaining activity (% of control) ([1]; Table 2, peptides from C-terminus of MRJP2, 2 mM unmodified peptide): 282.39 ± 19.66
Molecule: Ac-NQKN-OH [synthetic peptide derived from the C-terminus of MRJP2]

Cathepsin B remaining activity (% of control) [1, 11]: 91.72 ± 0.84
Cathepsin B remaining activity (% of control) [1, 12]: 96.48 ± 2.03
Molecule: Ac-TNR-OH (Ac-Thr-Asn-Arg-OH) [MRJP5 derived synthetic peptide]

Cathepsin B remaining activity (% of control) [1, 5]: 92.82 ± 5.44
Cathepsin B remaining activity (% of control) [1, 6]: 133.11 ± 4.29
Molecule: Ac-KISI-OH [synthetic peptide derived from the C-terminus of MRJP1]

Cathepsin B remaining activity (% of control) [1, 11]: 80.66 ± 6.19
Cathepsin B remaining activity (% of control) [1, 12]: 96.77 ± 9.26
Molecule: H-MHR-OH (H-Met-His-Arg-OH) [MRJP5 derived synthetic peptide]

Cathepsin B remaining activity (% of control) [1, 11]: 92.75 ± 2.41
Cathepsin B remaining activity (% of control) [1, 12]: 100.51 ± 10.69
Molecule: Ac-TDK-OH (Ac-Thr-Asp-Lys-OH) [MRJP5 derived synthetic peptide]

Cathepsin B remaining activity (% of control) [1, 11]: 88.56 ± 2.14
Cathepsin B remaining activity (% of control) [1, 12]: 107.34 ± 1.46
Molecule: Ac-MDR-OH (Ac-Met-Asp-Arg-OH) [MRJP5 derived synthetic peptide]

Cathepsin B remaining activity (% of control) [1, 11]: 82.63 ± 7.88
Cathepsin B remaining activity (% of control) [1, 12]: 97.75 ± 10.62
Molecule: H-VNR-OH (H-Val-Asn-Arg-OH) [MRJP5 derived synthetic peptide]

Cathepsin B remaining activity (% of control) [1, 9]: 80.84
Cathepsin B remaining activity (% of control) [1, 10]: 143.92 ± 3.15
Molecule: Ac-LVK-OH (Ac-Leu-Val-Lys-OH) [synthetic peptide derived from MRJP3 (see Leu170)]

Cathepsin B remaining activity (% of control) [1, 11]: 68.49 ± 8.73
Cathepsin B remaining activity (% of control) [1, 12]: 99.83 ± 3.40
Molecule: Ac-VNR-OH (Ac-Val-Asn-Arg-OH) [MRJP5 derived synthetic peptide]

Cathepsin B remaining activity (% of control) [1, 11]: 81.75 ± 3.26
Cathepsin B remaining activity (% of control) [1, 12]: 93.46 ± 12.24
Molecule: Ac-IDR-OH (Ac-Ile-Asp-Arg-OH) [MRJP5 derived synthetic peptide]

Cathepsin B remaining activity (% of control) [1, 11]: 87.53 ± 3.26
Cathepsin B remaining activity (% of control) [1, 12]: 103.18 ± 4.50
Molecule: H-TDK-OH (H-Thr-Asp-Lys-OH) [MRJP5 derived synthetic peptide]

Cathepsin B remaining activity (% of control) [1, 11]: 74.46 ± 0.97
Cathepsin B remaining activity (% of control) [1, 12]: 101.73 ± 2.37
Molecule: H-MDR-OH (H-Met-Asp-Arg-OH) [MRJP5 derived synthetic peptide]

Cathepsin B remaining activity (% of control) [1, 11]: 70.62 ± 12.34
Cathepsin B remaining activity (% of control) [1, 12]: 104.25 ± 2.73
Molecule: H-MDK-OH (H-Met-Asp-Lys-OH) [MRJP5 derived synthetic peptide]

Cathepsin B remaining activity (% of control) [1, 11]: 85.60 ± 5.32
Cathepsin B remaining activity (% of control) [1, 12]: 98.02 ± 2.54
Molecule: H-IDR-OH (H-Ile-Asp-Arg-OH) [MRJP5 derived synthetic peptide]

Cathepsin B remaining activity (% of control) [1, 11]: 99.38 ± 1.63
Cathepsin B remaining activity (% of control) [1, 12]: 109.67 ± 3.13
Molecule: Ac-MDK-OH (Ac-Met-Asp-Lys-OH) [MRJP5 derived synthetic peptide]

Cathepsin B remaining activity (% of control) [1, 11]: 90.13 ± 17.28
Cathepsin B remaining activity (% of control) [1, 12]: 101.26 ± 4.59
Molecule: Ac-MHR-OH (Ac-Met-His-Arg-OH) [MRJP5 derived synthetic peptide]

Reference: patent US9580464B2, “Anti-inflammatory proteins and peptides and methods of preparation and use thereof” (ManukaMed Limited, priority 2012, dated 2017)
